# Measured values taken from paper PMC8230603, “Rad52 Oligomeric N-Terminal Domain Stabilizes Rad51 Nucleoprotein Filaments and Contributes to Their Protection against Srs2”.
# B1: XV2 dsDNA (dsDNA)
# DNA 1: TGGGTGAACCTGCAGGTGGGCAAAGATGTCCTAGCAATGTAATCGTCAAGCTTTATGCCGTT
# DNA 2: AACGGCATAAAGCTTGACGATTACATTGCTAGGACATCTTTGCCCACCTGCAGGTTCACCCA
# Biological target: Rad52-FLAG (Saccharomyces cerevisiae, UniProt P06778 1-471)
# Assay: EMSA; 5 mM MgCl2; 10 mM Tris-HCl pH 8, 5 mM MgCl2, 100 mM NaCl, 37 °C, 10 min; 0.27 µM Cy5-DNA (nt per Fig 6 legend); 8% native PAGE
# Details: protein: recombinant; tags: FLAG; chain copies: 10; label: 5'-Cy5 on strand 1; blunt
# Sequence of Rad52-FLAG (P06778 whole entry): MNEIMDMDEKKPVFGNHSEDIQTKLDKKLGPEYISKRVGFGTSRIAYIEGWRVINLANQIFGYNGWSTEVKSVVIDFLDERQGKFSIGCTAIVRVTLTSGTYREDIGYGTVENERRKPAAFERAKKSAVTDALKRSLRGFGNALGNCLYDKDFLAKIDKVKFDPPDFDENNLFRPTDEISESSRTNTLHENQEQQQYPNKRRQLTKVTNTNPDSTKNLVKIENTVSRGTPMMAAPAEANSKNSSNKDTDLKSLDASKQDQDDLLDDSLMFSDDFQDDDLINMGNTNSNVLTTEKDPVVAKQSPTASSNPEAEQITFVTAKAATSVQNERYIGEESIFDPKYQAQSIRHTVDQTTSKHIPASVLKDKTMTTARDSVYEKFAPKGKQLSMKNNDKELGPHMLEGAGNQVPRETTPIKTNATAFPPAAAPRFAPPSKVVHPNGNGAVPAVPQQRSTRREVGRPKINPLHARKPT
binder,measurement,value
B1,binding result,binds
